Experimental data reported in patent US20230270832A1 (published 2023).

T1: MAGEA1 peptide on HLA-C*07:02 (human)
T1 peptide: VRFFFPSL


Biological target: T1, MAGEA1 peptide on HLA-C*07:02
Experiment: killing

| Binder | binding result |
| --- | --- |
| MAGEA1 TCR 32-41 (TCR, V domains shown) Valpha: TQLLEQSPQFLSIQEGENLTVYCNSSSVFSSLQWYRQEPGEGPVLLVTVVTGGEVKKLKRLTFQFGDARKDSSLHITAAQPGDTGLYLCAGDESISYGKLTFGQGTILTVHP Vbeta: DAGVIQSPRHEVTEMGQEVTLRCKPISGHDYLFWYRQTMMRGLELLIYFNNNVPIDDSGMPEDRFSAKMPNASFSTLKIQPSEPRDSAVYFCASSFLGWNEKLFFGSGTQLSVL | recognises |
| MAGEA1 TCR 32-39 (TCR, V domains shown) Valpha: DQQVKQNSPSLSVQEGRISILNCDYTNSMFDYFLWYKKYPAEGPTFLISISSIKDKNEDGRFTVFLNKSAKHLSLHIVPSQPGDSAVYFCAASAQNNDMRFGAGTRLTVKP Vbeta: NAGVMQNPRHLVRRRGQEARLRCSPMKGHSHVYWYRQLPEEGLKFMVYLQKENIIDESGMPKERFSAEFPKEGPSILRIQQVVRGDSAAYFCASSPSYEQYFGPGTRLTVT | recognises |
